Patent publication US20160000930A1 (University of Texas, published 2016)
Bridge positions count the residues as written; N and C are the ends. Ends that are not written are not given here.

Key:
[1] = target: T1, bovine serum albumin (bovine, UniProt P02769 25-607); assay: ELISA, BSA coated as background control (FIG. 6D)
T1 construct: Background control in ELISA; also called BSA
Description: (§1) Signal was detected by Odyssey imaging system using anti-goat IRDye 800CW or anti-rabbit IRDye 680 both from Licor Biosciences. Bovine DCN was from Sigma-Aldrich, NS0-derived murine DCN was from R&D Systems. Murine DCN cDNA was generated from WAT total RNA using SuperScript kit (Invitrogen). For bacterial expression, full-length mouse core DCN and ΔDCN isoforms were produced by cloning fragments encoding amino acids 1-354 and 45-354 of mouse DCN cDNA (OriGene) or of CLIC4 cDNA (OriGene) in-frame with the His₆Tag into pET28a vector, respectively. His₆-tagged proteins were purified with His-Tag kit (Novagen). For ELISA binding assays, 100 μl of 10 μg/ml of indicated His₆-DCN preparations, His₆-CLIC4 (control His₆-protein), NS0 cell-expressed mouse DCN (R&D Systems), purified bovine DCN (Sigma-Aldrich), or BSA were coated and immobilized onto Maxisorb Immunoplates (96 well; NUNC) overnight at 4° C., followed by blocking with 3% BSA, and then incubating with 100 μl of indicated concentrations of WAT7 or control WAT2 peptides. […] Bound peptides or FLAG-resistin were probed with corresponding rabbit anti-peptide Genemed antibodies (1:2,000) or rabbit anti-FLAG antibodies (Sigma-Aldrich, 1:2,000) followed by secondary goat anti-rabbit HRP-conjugated antibodies (Millipore, 1:5,000) and signal detection with Ultra-TMB (Pierce) substrate and measurement of absorbance at 450 nm. […]

[2] = target: T2, glycosylated bovine DCN (purified, Sigma-Aldrich) (bovine, UniProt P21793 31-360, glycosylated (GAG chain)); assay: ELISA, protein coated, FLAG-resistin detected with anti-FLAG (FIG. 6D)
T2 construct: also called bDCN*
Description: as §1

[3] = target: T3, recombinant bacterially-purified mouse ΔDCN (His6-tagged, amino acids 45-354 of mouse DCN) (mouse, UniProt P28654 45-354); assay: ELISA, DCN forms coated, FLAG-resistin detected with anti-FLAG (FIG. 6D); reference: full-length DCN (mDCN)
T3 construct: Expressed in bacteria, so not glycosylated; also called delta-DCN; His6-ΔDCN
T3 sequence: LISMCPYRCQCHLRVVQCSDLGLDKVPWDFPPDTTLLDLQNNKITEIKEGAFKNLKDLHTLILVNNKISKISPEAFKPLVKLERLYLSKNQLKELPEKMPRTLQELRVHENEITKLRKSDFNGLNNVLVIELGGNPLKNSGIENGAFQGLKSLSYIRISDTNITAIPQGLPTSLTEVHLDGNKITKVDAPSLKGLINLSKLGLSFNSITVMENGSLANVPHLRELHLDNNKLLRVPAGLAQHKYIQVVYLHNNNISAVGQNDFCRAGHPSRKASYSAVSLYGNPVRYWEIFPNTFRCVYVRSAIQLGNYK
Method: For bacterial expression, full-length mouse core DCN and ΔDCN isoforms were produced by cloning fragments encoding amino acids 1-354 and 45-354 of mouse DCN cDNA (OriGene) or of CLIC4 cDNA (OriGene) in-frame with the His₆Tag into pET28a vector, respectively. His₆-tagged proteins were purified with His-Tag kit (Novagen). For ELISA binding assays, 100 μl of 10 μg/ml of indicated His₆-DCN preparations, His₆-CLIC4 (control His₆-protein), NS0 cell-expressed mouse DCN (R&D Systems), purified bovine DCN (Sigma-Aldrich), or BSA were coated and immobilized onto Maxisorb Immunoplates (96 well; NUNC) overnight at 4° C., followed by blocking with 3% BSA, and then incubating with 100 μl of indicated concentrations of WAT7 or control WAT2 peptides. For adipokines binding assay, FLAG-tagged mouse resistin produced in HEK293 cells (Enzo Life Sciences), or control FLAG-BAP protein (Sigma-Aldrich) were incubated at the concentrations indicated. Bound peptides or FLAG-resistin were probed with corresponding rabbit anti-peptide Genemed antibodies (1:2,000) or rabbit anti-FLAG antibodies (Sigma-Aldrich, 1:2,000) followed by secondary goat anti-rabbit HRP-conjugated antibodies (Millipore, 1:5,000) and signal detection with Ultra-TMB (Pierce) substrate and measurement of absorbance at 450 nm. […]

[4] = target: T1, bovine serum albumin; assay: ELISA, BSA coated as background control
Description: as §1

[5] = target: T2, glycosylated bovine DCN (purified, …); assay: ELISA, protein coated (FIG. 16B)
Description: as §1, with “Bovine” for “Signal was detected by Odyssey imaging system using anti-goat IRDye 800CW or anti-rabbit IRDye 680 both from Licor Biosciences. Bovine”

T1 sequence (P02769 25-607 limits assumed): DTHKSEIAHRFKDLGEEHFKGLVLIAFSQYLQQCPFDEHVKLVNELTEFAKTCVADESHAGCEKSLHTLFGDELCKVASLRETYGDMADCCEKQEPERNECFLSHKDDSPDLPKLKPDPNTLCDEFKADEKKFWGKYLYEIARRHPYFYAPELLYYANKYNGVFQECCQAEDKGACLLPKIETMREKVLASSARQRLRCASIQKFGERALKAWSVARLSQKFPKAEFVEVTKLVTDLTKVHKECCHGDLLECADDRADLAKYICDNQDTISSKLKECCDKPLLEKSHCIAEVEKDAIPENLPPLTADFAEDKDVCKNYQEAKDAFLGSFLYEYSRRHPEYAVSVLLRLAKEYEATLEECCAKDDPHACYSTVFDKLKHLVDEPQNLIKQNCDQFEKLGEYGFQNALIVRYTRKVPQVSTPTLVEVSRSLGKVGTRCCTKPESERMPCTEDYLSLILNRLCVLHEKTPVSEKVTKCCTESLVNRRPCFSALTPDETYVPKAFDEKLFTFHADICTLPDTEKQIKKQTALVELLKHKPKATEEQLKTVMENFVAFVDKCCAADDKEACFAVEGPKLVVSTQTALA
T2 sequence (P21793 31-360 limits assumed): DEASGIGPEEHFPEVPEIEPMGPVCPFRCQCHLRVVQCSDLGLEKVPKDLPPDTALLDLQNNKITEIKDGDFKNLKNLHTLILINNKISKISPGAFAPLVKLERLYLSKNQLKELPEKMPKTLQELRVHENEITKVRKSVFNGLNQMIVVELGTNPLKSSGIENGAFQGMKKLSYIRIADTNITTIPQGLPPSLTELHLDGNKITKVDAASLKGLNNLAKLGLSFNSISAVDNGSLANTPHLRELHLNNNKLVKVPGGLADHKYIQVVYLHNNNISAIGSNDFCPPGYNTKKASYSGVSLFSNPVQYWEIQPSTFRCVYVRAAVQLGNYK

B1: FLAG-tagged mouse resistin produced in HEK293 cells (Enzo Life Sciences) (ligand, UniProt Q99P87 21-114, looked up)
chain: SSMPLCPIDEAIDKKIKQDFNSLFPNAIKNIGLNCWTVSSRGKLASCPEGTAVLSCSCGSACGSWDIREEKVCHCQCARIDWTAARCCKLQVAS
notes: Bought protein; also called FLAG-resistin; ADSF; not shown: FLAG tag
For B1, the binding result [1] was “no binding”, the binding result [2] was “no binding” and the “fold lower molar concentration for binding than to full-length DCN” value [3] was 100 fold.

B2: WAT7 peptide, cysteine-cyclized synthetic (CSWKYWFGEC) (peptide)
peptide: CSWKYWFGEC
modifications: disulfide 1-10
notes: Chemically synthesized (Genemed Synthesis); also called cyclic WAT7
B2: no binding [4]; no binding [5].
